The target of experiment [1] is T1, mouse TNFR2 expressed on CHO cells (mouse, UniProt P25119 23-474).
T1 construct: whole, on cells; also called mouse ortholog
T1 sequence (looked up): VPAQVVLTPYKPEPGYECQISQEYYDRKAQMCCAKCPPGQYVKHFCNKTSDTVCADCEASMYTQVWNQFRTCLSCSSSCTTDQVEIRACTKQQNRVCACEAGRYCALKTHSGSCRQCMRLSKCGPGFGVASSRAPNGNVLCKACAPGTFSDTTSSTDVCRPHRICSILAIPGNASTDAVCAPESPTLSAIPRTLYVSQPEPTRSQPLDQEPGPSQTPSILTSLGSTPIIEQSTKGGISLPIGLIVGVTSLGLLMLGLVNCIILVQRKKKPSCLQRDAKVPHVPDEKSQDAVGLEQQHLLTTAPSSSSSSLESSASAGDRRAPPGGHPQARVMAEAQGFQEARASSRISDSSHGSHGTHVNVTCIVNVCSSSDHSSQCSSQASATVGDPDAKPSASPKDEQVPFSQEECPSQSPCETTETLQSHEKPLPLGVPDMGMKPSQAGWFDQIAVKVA
Description: flow cytometry on CHO cells expressing mouse TNFR2. The method, then: (§1) These monoclonal antibodies were then tested for their abilities to bind human and monkey TNFR2 expressed by CHO cells (CHO.hHFB3 and CHO.mkHFB3 cells respectively). Briefly, about 40,000 CHO.hHFB3 or CHO.mkHFB3 cells were seeded in tissue culture wells, and serial 1:3 dilutions of each test antibodies, with starting (highest) concentration of about 66 nM antibody, were added to each cell type and incubated for about an hour. Antibodies bound to the cells were detected by using 17 nM of anti-human Fc antibody labeled by AF647 (ALEXSA FLUOR® 647 fluorescent dye). An isotype matched negative control antibody was also used in this assay. The data, including EC₅₀ values and Eₘₐₓ for each antibody, were compiled in FIG. 2A.
The same experiments were also set up to test the ability of the test antibodies to bind CHO cells expressing mouse TNFR2 and the parental CHO cell lines (which may or may not express hamster TNFR2).

For experiment [2], the target named is T2, His-tagged recombinant human TNFR1 (human, UniProt P19438 30-211, limits assumed).
T2 construct: also called rhTNFR1; hTNFR1-His; not shown: His tag
T2 sequence (looked up): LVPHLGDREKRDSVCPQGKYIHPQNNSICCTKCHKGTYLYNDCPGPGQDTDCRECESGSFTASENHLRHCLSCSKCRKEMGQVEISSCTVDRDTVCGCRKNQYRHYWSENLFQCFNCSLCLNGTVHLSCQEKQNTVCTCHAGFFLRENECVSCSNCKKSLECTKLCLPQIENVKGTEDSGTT
The experiment can be described thus: ELISA, plate coated with 0.1 µg/mL His-tagged recombinant human TNFR1. The method, then:
(§2) Briefly, tissue culture plates were coated with either 0.1 μg/mL of His-tagged recombinant human TNFR2 or TNFR1 overnight at 4° C. The coated plates were then incubated for about 1 hour on ice with 1:3 serial dilutions of each test antibodies, with starting (highest) concentration of about 66 nM antibody. Antibodies bound to the cells were detected by using 1:5000 dilution of HRP-labeled anti-human Fc antibody and TMB substrate. Isotype matched negative control antibody F3, as well as the MR2-1 positive control antibody specific for rhTNFR2 and a positive control antibody specific for rhTNFR1 were also used in this assay. The data, including EC₅₀ values for each antibody, were compiled in FIG. 4A.

For experiment [3], the target named is T3, His-tagged recombinant human TNFR2 (human, UniProt P20333 23-257).
T3 construct: extracellular domain; also called rhTNFR2; hTNFR2-His; not shown: His tag
T3 sequence (looked up): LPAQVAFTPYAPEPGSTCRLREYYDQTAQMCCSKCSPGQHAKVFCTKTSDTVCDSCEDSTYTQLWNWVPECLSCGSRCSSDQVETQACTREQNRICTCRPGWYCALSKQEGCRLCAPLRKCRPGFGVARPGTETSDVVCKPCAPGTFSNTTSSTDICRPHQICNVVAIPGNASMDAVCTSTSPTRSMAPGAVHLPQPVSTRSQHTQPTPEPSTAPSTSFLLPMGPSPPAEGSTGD
The experiment can be described thus: ELISA, plate coated with 0.1 µg/mL His-tagged recombinant human TNFR2, HRP anti-human Fc. The method, then:
as §2
On the technique in general: ELISA stands for enzyme-linked immunosorbent assay.

In experiment [4] the target is T4, human TNFR2 expressed on cells (CHO.hHFB3 / CHO.hTNFR2 cells; primary human T cells) (human, UniProt P20333 23-461).
T4 construct: whole, on cells
T4 sequence (looked up): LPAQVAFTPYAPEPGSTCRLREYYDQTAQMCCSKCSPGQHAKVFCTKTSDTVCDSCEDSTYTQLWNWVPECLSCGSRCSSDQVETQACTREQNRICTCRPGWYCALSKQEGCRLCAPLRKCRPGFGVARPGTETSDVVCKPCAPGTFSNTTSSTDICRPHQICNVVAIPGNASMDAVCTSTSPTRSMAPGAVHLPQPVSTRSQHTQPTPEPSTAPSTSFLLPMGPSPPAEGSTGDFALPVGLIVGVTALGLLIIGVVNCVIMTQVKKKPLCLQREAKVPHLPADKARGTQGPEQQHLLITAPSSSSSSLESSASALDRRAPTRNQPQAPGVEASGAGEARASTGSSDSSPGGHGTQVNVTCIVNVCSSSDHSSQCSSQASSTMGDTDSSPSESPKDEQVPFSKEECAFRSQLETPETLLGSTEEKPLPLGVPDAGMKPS
Description: flow cytometry on CHO cells expressing human TNFR2 (CHO.hHFB3), anti-human Fc-AF647 detection. The method, then:
as §1

Experiment [5] concerns the target T2, His-tagged recombinant human TNFR1. The experiment can be described thus: ELISA on recombinant hTNFR1-His.
The target in experiment [6] is T3, His-tagged recombinant human TNFR2. Description: ELISA on recombinant hTNFR2-His (FIG. 14A).
In experiment [7] the target is T4, human TNFR2 expressed on cells …. Description: flow cytometry on CHO cells expressing human TNFR2 (FIG. 12A). (In general: Flow cytometry measures light scatter and fluorescence of single cells or particles in a stream.)

B1: HFB3-18-hG1 (mouse monoclonal antibody) (antibody, human IgG1, kappa, V domains shown)
VH: EVKLEESGGGLVQPGGSMKLSCAASGFTFSDAWMDWVRQSPEKGLEWVAEVRNKANNHATYYAESVKGRFTISRDDSKSSVYLQMNSLRAEDTGIYYCTRSVGGYGTTYWYFDVWGTGTTVTVSS
VL: DIVMTQSPSSLSVSAGEKVTMSCKSSQNLLNSGNQKNYLAWYQQKPGQPPKLLIFGASTRESGVPDRFTGSGSGTDFTLTISSVQAEDLAVYYCQSEHSYPYTFGGGTKLEIKR
notes: also called human-mouse chimeric monoclonal antibody HFB3-18
Turning to B1, the binding result in experiment [1] is given as “binds”; in experiment [2], “no binding (tested: highest concentration about 66 nM)”; in experiment [3] it was “binds”; in experiment [4], “binds”.

B2: HFB3-14hz1c-hG1 (humanized monoclonal antibody) (antibody, V domains shown)
VH: QVQLVQSGAEVKKPGSSVKVSCKASGYTFTDYYMNWVRQAPGQGLEWMGDINPNDGGTTYAQKFQGRVTITADESTSTAYMELSSLRSEDTAVYFCAREGNYYAYDVRVWYFDVWGQGTTVTVSS
VL: DIQMTQSPSSLSASVGDRVTITCGASQDIITYLNWYQQKPGKAVKLLIYSTSSLNSGVPSRFSGSGSGTDFTLTISSLQPEDFATYYCQQYSELPYTFGGGTKVELKR
notes: also called HFB3-141c-hG1
Turning to B2, in experiment [5], the binding result was “no binding”.

B3: HFB3-1-hG1 (mouse monoclonal antibody) (antibody, human IgG1, kappa, V domains shown)
VH: EFQLQQSGPELVKPGASVKISCKASSYSFTDYNMNWVKQSNGKSLEWIGIIFPKYGTTSYNQKFKGKATLTVDQSSSTAYMQLNSLTSEDSAVYYCATDGGTWYFDVWGTGTTVTVSS
VL: QIVLTQSPALMSASPGEKVTMTCSASSSVTYMYWYQQKPRSSPKPWIYLTSNLASGVPARFSGSGSGTSYSLTISSMEAEDAATYYCQQWSSNPPTFGSGTKLEIKR
notes: also called human-mouse chimeric monoclonal antibody HFB3-1; parental HFB3-1-hG1
For B3, the binding result in experiment [2] is “no binding (tested: highest concentration about 66 nM)”; in experiment [3], “binds”; in experiment [4] it was “binds”.

B4: HFB3-18hz1-hG1 (humanized monoclonal antibody) (antibody, V domains shown)
VH: EVQLVESGGGLVQPGGSLKLSCAASGFTFSDAWMDWVRQASGKGLEWVGEVRNKANNHATYYAASVKGRFTISRDDSKNTAYLQMNSLKTEDTAVYYCTRSVGGYGTTYWYFDVWGQGTTVTVSS
VL: DIVMTQSPDSLAVSLGERATINCKSSQNLLNSGNQKNYLAWYQQKPGQPPKLLIFGASTRESGVPDRFSGSGSGTDFTLTISSLQAEDVAVYYCQSEHSYPYTFGQGTKLEIKR
As for B4, the binding result in experiment [5] is recorded as “no binding”; in experiment [6] it was “binds”; in experiment [7] it was “binds”.

B5: HFB3-1hz6-hG1 (humanized monoclonal antibody) (antibody, V domains shown)
VH: QVQLVQSGAELKKPGASVKVSCKASSYSFTDYNMNWVRQAPGQSLEWMGIIFPKYGTTSYAQKLQGRVTLTTDTSTSTAYMELRSLRSDDTAVYYCATDGGTWYFDVWGTGTTVTVSS
VL: DIQLTQSPSFLSASVGDRVTITCRASSSVTYMYWYQQKPGKAPKPWIYLTSNLASGVPSRFSGSGSGTEYTLTISSLQPEDAATYYCQQWSSNPPTFGSGTKLEIKR
With B5, the binding result is “no binding” in experiment [5], “binds” in experiment [6] and “binds” in experiment [7].

Source of the values: US20230045791A1 (HIFIBIO, published 2023).
